# Test results from a protein production outcome set (Wang et al. 2014).
# Assay: label from the status in PepcDB records
row,Sequence,protein production
1,MYVFFSKDYLSKQEQSIWEQSFLRGNLMKAVVIGAGEVGYHIAKFLSLTHDVIVIENDEDALRRADELDVQVVEGNGANADILASVLPDVDILVAVTGVDEVNIVACMTAKLILRAHPGWKETKTIARVSNPDYIDVPVTSRAQVGVDIMICPELALASEVAEVLSNPSAIDAEMFAGGKVQMMEFAIRPDNRLVGKRMQDIELEDCCIVSAIFRNNDIIIPHGDDFIKANDHMVVVGKPRAMADLENVFGNEGPHRNRILLIGCGIVGFYLAKIIDKDENADLKVIEYRKSRCIEVAEMLENALILNGDGTDVNLLREENIEDMDVVIAVTDNDEKNLLCSLLAKQMGAKKVIARADRSDYVPLFEMVGIDIAVSPREATVNEVLKLTMGKGIEALATIEGEKAEIIEYTASGQSKIVGKPLSKIKFPKGAIVTMVVHDDDVIIPRGEFIIREGDRVIIFALSSAVRSVEKLFK,failed
2,MYVIIMGAGRIGTLVAKMLENSGHDVAIIEMNKDRARAVSDIVSGLVIEGDATDQNILESANVRNADAFVALTGKDDANILACILAKHLNPRIMTILRITDPRKKKIFEEVKDLKKYFDVVVSPEDIAANYIFRVVITPGFDRVLLPREGAEIIQFHIDENSKVAGKAVKDLNLPRDSLIIAIYDEKGNLIIPSGETILPKRGTVVVFAKDSALKEIKKIMEEKVEESEE,failed
3,MYVLIGGAGLVGLTLAQKLVELGHTVAIIDVDHTACRYAREQVGAMAFEGSAVSTEVLLEAGIRKADALAAVLRNDALNLAMVMLAKHYGVSHILSRMRHADFAQPLRLAGANHVISTVELSVSTMVNAIEYPQVESMMHFEQGQIEVLKISIPNSCYVANRSLAEIAQDSRFPSGSLIIGYQPHPHEDLVIPNGSTVLESGSTILIATKPGSLHQVIDFIEGCKLEHHHHHH,not failed
4,MYYGFDIGGTKIALGVFDSTRRLQWEKRVPTPHTSYSAFLDAVCELVEEADQRFGVKGSVGIGIPGMPETEDGTLYAANVPAASGKPLRADLSARLDRDVRLDNDANCFALSEAWDDEFTQYPLVMGLILGTGVGGGLVLNGKPITGQSYITGEFGHMRLPVDALTLMGFDFPLRRCGCGQMGCIENYLSGRGFAWLYQHYYDQSLQAPEIIALWEQGDEQAHAHVERYLDLLAVCLGNILTIVDPDLLVIGGGLSNFTAITTQLAERLPRHLLPVARAPRIERARHGDAGGMRGAAFLHLTD,not failed
5,NDPDADRFAVAVRKDDGEYQMLTGDQVGVLFGHYLLSHASADQRLVGTTIVSSSLLSKIANGFGVESYTTLTGFKWLMNVGIAQSQPDNQFLFAYEEALGYTVGNMVWDKDGLSALVAFAQLTAELAAKGQTIWDRLEQIYREQGFHLN,failed
6,NFDTNMFKLENYVKEKYSLESLEIIPNEFDDTPTILSERISQVAAGVLRNLIDDNMKIGFSWGKSLSNLVDLIHSKSVRNVHFYPLAGGPSHIHAKYHVNTLIYEMSRKFHGECTFMNATIVQENKLLADGILQSRYFENLKNSWKDLDIAVVGIGDFSNKGKHQWLDMLTEDDFKELTKVKTVGEICCRFFDSKGKEVYENLQERTIAISLEDLKNIPQSLAVAYGDTKVSSILSVLRANLVNHLITDKNTILKVLEEDGDL,not failed
7,NFSNRVQDVIRLSREEALRLGHDYIGTEHLLLGLIREGEGIGAKILKNLKVDLFQLKQKIEENTHPKVPATQMGNVPLTKQAEKVLKITYLEAKICKSTIIGTEHLLLSILKGDDNIAAQILEQFGVTYDQVRDELMTITT,not failed
8,NFTLAITEAVSEKEIYNKLAENLPKILQADRGSVTLITENKDEFEVFSLQGPEGMLSIGKYFSVDNSLAGLAVQQEKTIISKLNADRIEIDAQQLYQQDLLSIMNSPLQFSDRIIGTVNIGSYKENAYDSTSLELLTLVSTLVSNYLERQHLLEQAQIGVKQYKTYSKQLESLNHVAEELCAATNE,failed
9,NGKLFLVGTPIGNLKDITLRALETLQNCDVIAAEDTRQSLKLLNHFDIKKPLISYHKFNENNRSSELMDMVREGKKVALVTDAGMPGISDPGSVIVEKFIENNLEFEVIPG,not failed
10,NIGSAVPRGELVLAMEKIGKLLQERGGSVVIRGHTDGRQFKGEANDNWRLSMDRAHSAYYMLVRGGLSEERVKQVSGFADRRLQVPSNPLADANRRIEILLEADR,failed
11,NIPEIENANLKPALKDSVLPDGFYSTTNHPTHVKVNDEWIEVANPKMDAVIVVYPEEKRAETKVIRKVKKGDFVLIGHNGIRVMPPEKSREAGQLFEFMNSEVSSEKPKEAIIKRIAKEMHEIREEYKKTGTGGIAIVGGPAIIHTGGGPALAKMVELGYIQAILAGNALATHDIESALYGTSLGVNIKTAKPVTGGHKHHIYAINAINDAGNIKNAVESGVLKEGIMYQCIKNNIPYVLAGSIRDDGPIPDVITDSMVAQDKMRTTVMDKKMVIMLSTLLHSVATGNLMPSYIKTVCVDIQPSTVTKLMDRGTSQAIGVVTDVGVFLVLLLKELERLELQE,not failed
12,NKSYRSTEQITNFAKALLPDGDQIQAFTRKGDLPKVMIRYGEDAALSSLRSEVEHQLKATNTVAVLTKDLAESKQVYQYLKRYTVTTLMADSDRTMPQGVIVMPIYLAKGLEFDAVVAYDVSATNYPDADSVGILYTIASRAMHHLTLLSIGDVSPLIAQLDPTLFTIEHQVRV,not failed
13,NKYNKIANELIKIIGEDNIISITHCATRLRVMVKDREIINDKKVEKVDEVKGVFFTSGQYQIILGTGIVNKVYAEVEKMGLKTLSKKEQDELVKNNE,not failed
14,NLDPQRVEQEMILLAQRIDVAEELDRLQMHVKETTNILKKGGAVGRKLDFMMQELNRESNTLASKSINADITASAVELKVLIEQMREQIQNLE,failed
15,NLNAIQNFGAMDILCTDKTGTLTCDKIVLEKYINADGSDDNSKRILRHAYFNSYFQTGLRNLMDKAILSHVRELNLEHLKDAYTKVDEIPFDFTRRRMSVVIEDRQGKRQIITKGAVEEILDVCSYAEFDREIHPLTDSLKIKAQKISEEMNRQGMRVLAVSQKSFIEKDCNFAIEDEKEMVLIGYLAFLDP,not failed
16,NLSELTPYILCSICKGYLIDATTITECLHTFCKSCIVRHFYYSNRCPKCNIVVHQTQPL,not failed

row,Sequence,protein production
1,NNLFVYCEIEEGIVADVSLELLTKGRSLANELNCQLEAVVAGTGLKEIEKQILPYGVDKLHVFDAEGLYPYTSLPHTSILVNLFKEEQPQICLMGATVIGRDLGPRVSSALTSGLTADCTSLEIGDHEDKKEGKVYKNLLYQIRPAFGGNIVATIVNPEHRPQMATVREGVMKKEIVSPAYQGEVIRHDVKKYVADTDYVVKVIERHVEKAKNN,not failed
2,NPHMWWLQDADPENNSRQASPSQESINQLVYMGFDTVVAEAALRVFGGNVQLAAQTLAHHGGSLPPDLQF,not failed
3,NQLIRGRLVVGMVTACTVKPLFDALSAFHVAHPGIEITLTEDSSDRLVERVRAGAIDLALVGTATAPPDGLDAFPIISEGLVAAVPPGHPLAGRSRVTLAELGDHAIVCMPTGTGIRTVFDQACAAAGLRPDIALQASAPDAVADLAIRG,failed
4,NQPAYKDSSLSPEERAEDLLQQLTLEEKVALMMDNSKPVERLGIKPYNWWNEALHGVARSGLATVFPQPIGMAASFEPDAIHTIYTAVSDEARAKNAAYSAAGSYERYQGLTMWTPTVNIYRDPRWGRGIETYGEDPYLTSVMGVNVVKGLQCMDANQKYDKIHACAKHFAVHSGPEWNRHEFNAENIKPRDLHETYLVPFEALVKEAKVKEVMCAYNRLEGDPCCGSDRLLMQILRQDWGYDGIVLSDCGAIDDFYREKGHKTHPDAESASAAAVLSGTDLECGSSYKALVESAKKGLISEKDIDVSVKRLLKARFELGEMDDP,failed
5,NRFIGYIQVACCCLLLCASCVRDGMDEDCNSYVRFVYDYNLEYIDLFHKQATKMNLYVFDEKGVFVTELKEESGAFAPDYLMTLPGAMAGRRYIFVAWSGLYGESYDKVTLTPGVSTLEDLEVSVNNLKTRIGGGVVDRELHLLWHGKQTEVSPQYNNDITTVSLLKNTKKFRIIMQMLDDSSIHVDDYDFRIISPNGRYNHENGLLGDETDEKVEYTAYHTEDDPETGAIAELNTLRLMTDTENRLVITHKSSGNVILDIPLNKYLNALRLQQYADIPLQEYLDRADKHGIILFFKGMDGNGNYISVDVQINGWLIRKQEVD,not failed
6,NSFDSSNYFYGGNNICIINTKWGKHSGIGGYAEIIDTLVGNFTNISSWAKIGIRDHIHTNFLICDFVYKDNDHIMPPGISSFEDYWVKIGNDVWVGTNVTILRGVEVGDGAVIAAGSVVTKSIPPYAIVGGNPAKFIKWRFPFEVREKLLEIKWWDWDDDLIKEKKDYLQNLVGFDMDKYKIEYRKRKED,failed
7,NYNIYDHPKAAEDRKNTVLYLMHYHKRITDKQWEDAKKIDLKANLVNRTPEERQNIDTNQDSEYNSYVNFVKSELMNNKAFKDENLGNVLQSG,failed
8,PALPYAKSLAPVDLTDCSAQALETARQLGLLQRTKLIVMHVYDAAAAGMLNYAGVDKTSLDDYLVDTRTDAVRDLVRFLEPLRLDDVDYSTVVKEGAGPATDIIEAATELRPDLVVIGTHARRGAVRLLLSSVTEEVLRRLQRDILVVPVRDAGS,failed
9,PDRAWINRCRTLSEHTDKAVRAQLAAHPKATGLHVAAAVMDALTDGDQLLLGASNPVRDAALVSYPAPKIRVLSNRGVAGIDGTVSAAVGAALAYEEGRTVALLGDLTFLHDASGLLIGSGEPRPRDLTIVVANDDGGGIFELLEQGDPQYAGVFERVFGTPHGMDLAALCAAYRVEHHLVGLGELSTRLSAPEAPGDRGIRVLEVTTERSGLRELHAAVRAQL,failed
10,PECDWWALGVFAYEMFYGQTPFYADSTAETYGKIVHYKEHLSLPLVDEGVPEEARDFIQRLLCPPETRLGRGGAGDFRTHPFFFGLDWDGLRDSVPPFTPDFEGATDTCNFDLVEDGLTAMVSGGGETLSDIREGAPLGVHLPFVGYSYSCMALRDSEVPGPTPMEVEAEQLLEPHVQAPSLEPSVSPQDET,failed
11,PEQHRLRYQSLKQQLDDYYQEVTVQNYLDLTTRSHAFDQWLNNNIQLDWVKATVVKDAPDKIRAKANKEQHLNFQLIKHLEKPEDNVDLISAYFVPEKQGAKHLSDMAQDGIKVRVLTNSFKANDVPVVHAFYAKYRQELLENGVQLYEFLPTLEKEELDKYTDELVKKAKVSIKGLSRSSLHAKMMALDQKQVFIGSFNFDPRSAYLNTEIGVILNSPPLAMAVHQTMDQQLTHYAYKLVLDANHKINWYRQTS,failed
12,PFIMDAPRDLNISEGRMAELKCRTPPMSSVKWLLPNGTVLSHASRHPRISVLNDGTLNFSHVLLSDTGVYTCMVTNVAGNSNASAYLNVS,not failed
13,PFKESQARGLLQDNMANSYNGGDFEDGLLNLSKEVFPTDKYLYQDGQFLDKKTINAYLNPKYTKREIDKMSEKDKKDKKANENLGLNPSHEGETNPEKIAEKSPAYLSNILEQDFYGGGDTKGKNIKGMTIGLAMNSVYYYKKEKDGPTFSKKLDDSEVKKQGKQMASEILSRLRENDDLKDIPIHFAIYKQSSEDSITPGEFITQATAEKSQTKLNEWHNINEKSALLPSSTAADYDENLNNNFKQFNDNLQSYFSNFTQAVGKVKFVDKKPQRLVVDLPIDYYGQAETIGITQYVTEQANKYFDKIDNYEIRIKDGNQPRALISKTKDDKEPQVHIYSN,not failed
14,PGGPEEQWQRAIHERGEAVCPTCNVVTRKTLVGLKKHMEVCQKLQDALKCQHCRKQFKSKAGLNYHTMAEHSAKPSDAEASEGGE,not failed
15,PGMLYEFCLKPDGTMTFPYVSSGCLELIECSPQELQDDASLTFASTYPEDIIGLQEAIANSAKTLQNFEHEWRIITSSGQLKWVKGASRPERKPGGEITWYGYLLDVSEQQAALRERKQADQQLQQQAQLLQSIWEGVD,failed
